Residue numbers refer to the chain shown, from its start. Names may count otherwise.

Common to all, as to details: both partners purified
Assay [1] concerns the target T1, HER2-ECD-His protein (Homo sapiens, UniProt P04626).
T1 construct: human epidermal growth factor receptor 2 (HER2), extracellular region (ECD); The SPR methods name HER2-ECD-His; The ELISA legends say only 'HER2-ECD protein'; also called HER2-ECD protein; extracellular region (ECD) of HER2; source: Freestyle 293 system, secreted, purified (Ni-NTA)
As to the kind of experiment: SPR; affinity: antibody captured at about 50 RU by goat anti-human IgG (γ) on CM5; HER2-ECD-His injected at 0 to 640 nM; fit to 1:1 (Langmuir) model. For orientation: Surface plasmon resonance follows binding to a sensor surface in real time, without labels.

The target in assay [2] is T1, HER2-ECD-His protein. As to the kind of experiment: SPR; k off analysis of Fab: HER2-ECD-His immobilised on CM5 by amine coupling at about 2,000 RU; Fab injected at 2 μg/mL, 50 μL/minute.
Assay [3] deals with T1, HER2-ECD-His protein. As to the kind of experiment: SPR; k off analysis of IgG: antibody captured at 1 μg/mL by goat anti-human IgG (γ) immobilised on CM5; HER2-ECD-His injected at 160 nM.
Assay [4] deals with T1, HER2-ECD-His protein. The assay can be described thus: SPR; affinity: antibody captured at about 50 RU by goat anti-human IgG (γ) on CM5; HER2-ECD-His injected at 0 to 640 nM; fit to 1:1 (Langmuir) model. The source holds these as a separate data set.

B1: chimeric 1E11 (antibody, V domains shown)
VH: EVKLVESGGGLVQPGGSLKLSCAASGFTFSSYTMSWVRQTPEKRLEWVAYISNGGGSTYYPDTVKGRFTISRDNAKNTLYLQMSSLKSEDTAMYYCARHLGGTASFDYWGQGTTVTVSS
VL: DIQMTQSPASQSASLGESVTITCLASQTIGTWLAWYQQKPGKSPQLLIYVATSLADGVPSRFSGSGSGTKFSFKISSLQAEDFVSYYCQQLYSTPWTFGGGTKLELK
notes: VH of murine 1E11; VL of murine 1E11; Chimeric IgG; also called ch1E11; parental ch1E11; source: Freestyle 293 system, purified (protein-A)
The term Kd denotes the equilibrium constant for the complex coming apart. A high value points to lower affinity. B1 came in with a Kd in the assay with HER2-ECD-His protein [1] of 23 nM.

B2: hz1E11 Fab, T99HA mutant (Fab, V domains shown)
VH: EVQLVESGGGLVQPGGSLRLSCAASGFTFSSYTMSWVRQAPGKGLEWVAYISNGGGSTYYPDTVKGRFTISRDNAKNSLYLQMNSLRAEDTAVYYCARHLGGAASFDYWGQGTLVTVSS
VL: DIQMTQSPSSLSASVGDRVTITCLASQTIGTWLAWYQQKPGKAPKLLIYVATSLADGVPSRFSGSGSGTDFTLTISSLQPEDFATYYCQQLYSTPWTFGQGTKVEIK
notes: as the VH of m4 (hz1E11); numbers count on: Kabat; as the VL of m4 (hz1E11); Fab in the vector pComb3X; source: E. coli DH5α, periplasmic extract, purified (IMAC)
In the case of B2, the “fold increase of k off (against the parental Fab)” value in the assay with HER2-ECD-His protein [2] is 32 fold.

B3: hz1E11 Fab, G97HA mutant (Fab, V domains shown)
VH: B2 VH with G101A, A103T
VL: B2 VL
notes: as the VH of m4 (hz1E11); numbers count on: Kabat; as the VL of m4 (hz1E11); Fab in the vector pComb3X; also called G97A; source: E. coli DH5α, periplasmic extract, purified (IMAC)
For B3, in the assay with HER2-ECD-His protein [2], the “fold increase of k off (against the parental Fab)” value was found to be 17 fold.

B4: L-1A12 + H-2A7 (IgG) (antibody, V domains shown)
VH: B2 VH with H99N, L100F, A103T
VL: B2 VL with L91N, Y92A, S93Y, T94A
notes: as the VH of m4 (hz1E11); numbers count on: Kabat; as the VL of m4 (hz1E11); IgG; source: Freestyle 293 system, purified (protein-A)
As a reminder, the koff is the first-order rate constant of dissociation. A lower koff goes with slow dissociation. B4: the koff in the assay with HER2-ECD-His protein [3] is 2.59e-05 s⁻¹.

B5: L-1F11 + H-1B12 (IgG) (antibody, V domains shown)
VH: B2 VH with H99N, L100Y, A103T
VL: B2 VL with L91T, Y92A, S93F, T94S
notes: as for B4
Molecule B5 displayed a koff with HER2-ECD-His protein [3] of 3.45e-05 s⁻¹. This koff and that of the molecule before are within 1.5-fold of each other.

B6: clone 1A12 (IgG) (antibody, V domains shown)
VH: B2 VH with A103T
VL: B2 VL with L91N, Y92A, S93Y, T94A
notes: as the VH of m4 (hz1E11); CDR-H3 HLGGTASFDY; as the VL of m4 (hz1E11); numbers count on: Kabat; IgG; also called L-1A12; source: Freestyle 293 system, purified (protein-A)
Usually kon stands for the second-order rate constant of association. Molecule B6 gave a koff in the assay with HER2-ECD-His protein [3] of 2.8e-05 s⁻¹. Moreover, in the assay with HER2-ECD-His protein [4], the Kd was determined as 1.9 nM, the koff is 0.00012 s⁻¹ and the kon amounted to 64000 M⁻¹ s⁻¹.

B7: L-1A12 + H-1B12 (IgG) (antibody, V domains shown)
VH: B2 VH with H99N, L100Y, A103T
VL: B2 VL with L91N, Y92A, S93Y, T94A
notes: as the VH of m4 (hz1E11); numbers count on: Kabat; as the VL of m4 (hz1E11); IgG; also called combination of the VH of 1B12 and VL of 1A12; source: Freestyle 293 system, purified (protein-A)
As to B7, in the assay with HER2-ECD-His protein [3], the koff was 1.87e-05 s⁻¹.

B8: clone 1F11 (IgG) (antibody, V domains shown)
VH: B2 VH with A103T
VL: B2 VL with L91T, Y92A, S93F, T94S
notes: as the VH of m4 (hz1E11); CDR-H3 HLGGTASFDY; as the VL of m4 (hz1E11); numbers count on: Kabat; IgG; also called L-1F11; source: Freestyle 293 system, purified (protein-A)
With B8, in the assay with HER2-ECD-His protein [3], the koff turned out to be 5.89e-05 s⁻¹. In the assay with HER2-ECD-His protein [4], this molecule came in with a Kd of 1.4 nM, a koff of 0.00012 s⁻¹ and a kon of 90000 M⁻¹ s⁻¹.

B9: L-1F11 + H-2A7 (IgG) (antibody, V domains shown)
VH: B2 VH with H99N, L100F, A103T
VL: B2 VL with L91T, Y92A, S93F, T94S
notes: as for B4
For B9, in the assay with HER2-ECD-His protein [3], the koff was found to be 4.5e-05 s⁻¹.
